A value given as a limit tells only on which side of the number the result lay.

A short description of this data set: folding stability dG unfold (combined trypsin and chymotrypsin); higher = more stable. Here is the method:
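Folding stability of de novo designed mini-proteins (<80 aa, no Cys; designed by TrROS, TrMRF, ProteinMPNN and the joint model) was measured by cDNA display proteolysis with trypsin and chymotrypsin. Each protease was used at 11 concentrations in a threefold dilution series plus a no-protease condition. K50 was inferred by Bayesian fitting of sequencing counts, and dG unfold was derived against a sequence-predicted unfolded-state K50 (Tsuboyama et al. method). Sequences shown include variable-length N-terminal GS-type padding (SAGGSAGG...) inside a display construct carrying a PA tag. Rows were kept only if the AF2 dimer inter-PAE was >15, to exclude likely homo-oligomers.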
For “SAGGSGTTSPVLVEETVFTDGSATYTRKKVELEEVERPPVPPVEIPEEAREAGLAGDYEAAEAILASAGGSA [r2_196_JUSTAS]”, the “folding stability dG unfold” value was less than -1 kcal/mol. In the case of “SAGGSKDKKMPPEQAKQVQVRVEIPIRVYRPGDGGEPHDFPIEIWGPMKSPEEADKEVNDAIDEFFSAGGSA [r2_244_TrROS]” it was less than -1 kcal/mol; in that of “SAGGSMPLETLETTGEYVPGTGVYVTKLAVGDPKSDVSFSVTETRPTTDPVTGTPSLYSKPVSFSYKKSAGG [r19_129_JUSTAS]”, less than -1 kcal/mol. As to “SAGGSMTELIPTPPSATTLNVTKTVPDPRTGTTVTTNVTVEVVPEGDGYVATVYYDPSGRPVKRSLSAGGSA [r2_123_JUSTAS]”, the “folding stability dG unfold” value was less than -1 kcal/mol. In the case of “SAGGSNPLLDELKDKPFRLPNIRDPGNGRDFPGVPIKIKEAEPPKDDGKISIKVEHPDGPYEMQIDSAGGSA [r2_314_TrROS]” it was less than -1 kcal/mol; in that of “SAGGSPKIQIDQYNPNDYYVRIEYPGNGNTHEIPFRGSKGELAKKLEDEAEEHNMPIDVEIYPPDDSAGGSA [r2_161_TrROS]”, less than -1 kcal/mol; in that of “SAGGSPPLVVEEELLSEKTLPEPGTGTVTLTRRTIRDPTADVEWEERFTVTTPPDGSVEVSSTRERLLSAGG [r13_917_JUSTAS]”, less than -1 kcal/mol. To “SAGGSTVTVEVETEEEAEALLQGLPELEEVVVVIPGEGEPVEKPVKIEPPAPGVLGETPLPRPSPRLLSAGG [r13_183_JUSTAS]” belongs less than -1 kcal/mol; to “SAGGSTVVTEVSVSPGNPTLTLDSKTPDGKVVAKRVAAPADATATFEVKQTINGNPVITTVTQAPEASAGGS [r16_672_JUSTAS]”, less than -1 kcal/mol; to “SAGGSVDVDEEEAEKLIEEALKKGLEVTITARLPDGGVRVLKYEGPDRKRTVIEELPVPPSPLNPALLSAGG [r13_839_JUSTAS]”, less than -1 kcal/mol.

Turning to “SAGGSVEISEEELEKLIEEGRVDKKEEYPEGVPSKKYETEKLGKELGKPITINVTTTPDGKAVAKVLKSAGG [r13_163_JUSTAS]”, the “folding stability dG unfold” value was less than -1 kcal/mol. In the case of “SAGGSVLPPDAVVYGTETRPFPNGETVEVERERRFPPRPPAPAGVLVEYPDGTVVPAPSPEEAAALLSAGGS [r16_580_JUSTAS]” it was less than -1 kcal/mol; in that of “SAGGTVREIKEILKEKGWPVKNVEPGPNGNYTVQLRRPRGKPFKINIPSDNPEEQQALREAIPPDFVSAGGS [r16_821_TrROS]”, less than -1 kcal/mol. In the case of “SAGIKEIAKKLGMPPNNIKIKNIQPQPRRKPDPEDGKPEPEPYPTVSVEIEAPGNGKKREASIPADEIQSAG [r5_517_TrROS]”, the “folding stability dG unfold” value is less than -1 kcal/mol. On to “SAGIKPGDPLIIKFNFPPEARDKIKKLLEDPGFTYENDPDKGSVSIVFPAADVDRLQDLPGISEIVPVSAGG [r19_212_TrROS]”, for which the “folding stability dG unfold” value is less than -1 kcal/mol. In the case of “SAGIVIPFEELKEFMSDEEIEDIAREFAQDNGYPPKKIEIEPHPNPGDWITIKAEPDNGNKAPIVFRLPSAG [r5_745_TrROS]” it was less than -1 kcal/mol; in that of “SAGKERTWRIYVPKNMPPGRPFEGELELNPNGERDVRISWPGGKTRKIKSPDDIKELAKSGYPIMIEPVSAG [r5_42_TrROS]”, less than -1 kcal/mol. With “SAGMDIYTETVVPLRVETDEEEIEEIIEKAKEEAEKKGYKPVEIPVETEPSPEGKTLVTIPVKLLKKAPSAG [r14_109_JUSTAS]”, the “folding stability dG unfold” value is less than -1 kcal/mol. To “SAGMDKPVATFTRQKTPDGTEVLHVTVTTTAAGTGTTDPSTFTFPAGSDPAVVAAKVRAAGVAAVAFEPSAG [r5_37_JUSTAS]” belongs less than -1 kcal/mol. In the case of “SAGMIVKTVTVSPEVPPEEVAERLKRENPWIKEVKPEKVTSVTVPNPGKTLLTVTITIELDDVPEEVLKSAG [r5_326_JUSTAS]”, the “folding stability dG unfold” value is less than -1 kcal/mol.

With “SAGMKITFPDGFKEIEVYEDPNYPYIEIPLPGGSIRYDLKDGPIEIEPPGDNRPIRFPIPPGDTITLPSAGG [r19_138_TrROS]”, the “folding stability dG unfold” value is less than -1 kcal/mol. In the case of “SAGMPESEVIPLPDGSVVEVRRWPDSELRFVFPPGGPATVERHDTRTGTVETTPVSAADPEAAAAAVLASAG [r5_674_JUSTAS]” it was less than -1 kcal/mol. To “SAGMPPVRVVQAPSTVYTDPSPPTLTVESVFTGEGRLSTTSSTVPAPPELADLPAGAAVSRSFTVTVLPSAG [r5_714_JUSTAS]” belongs less than -1 kcal/mol; to “SAGMPRLVTVEMVVLRVVPVYDPEGKPVREEPREERRTRTAPLAEAQAEIDALPPDEEVTEILRVEPESAGG [r19_114_JUSTAS]”, less than -1 kcal/mol; to “SAGMTPEELEAGRPVERTIPLEIQHPEGNPIATYNITGTLTMEELKKLKEEIREEAKKKGIPPNLNTSLSAG [r5_606_JUSTAS]”, less than -1 kcal/mol. In the case of “SAGMVKIKIYVENPETGEEKELEIVKEFESEEEAEKEAEKIAKELEKAGYKVKKIEIEVIPLPPLPENPSAG [r5_660_TrMRF]”, the “folding stability dG unfold” value was more than 6 kcal/mol. To “SAGPKIEIEPLDWERDPGNGHMVIPVEISVKVPREENGRPPEQAEEKKESLVREFAREWAPKHGMPIHVSAG [r5_333_TrROS]” belongs less than -1 kcal/mol; to “SAGPLKPGKTIEVPMEFTSPSDIVDELEKLPGIKDIEPTGIEPEPNPDGPPRIRVPFTFKIPKDGEPLSAGG [r19_221_TrROS]”, less than -1 kcal/mol. Turning to “SAGPNFQIKKVEHKGGKIEIPIRLPNGRPFTARIKVEKRPDPDGNDRPRTKIEISEDALKEYIPPDLIKSAG [r5_462_TrROS]”, the “folding stability dG unfold” value is less than -1 kcal/mol. In the case of “SAGPNPGEPLTVVTETSTEKVPTSSGRAVPVTTSTASNGTVIEKFPDGKVLVFEPGKGPENKTVLPEVSAGG [r19_199_JUSTAS]” it was less than -1 kcal/mol; in that of “SAGSEIYEAAKAGKKATVPVETTLTEVTEESVTPLGGPTLKAREVARTTFNAKLTKFDPKTGKITTDLPSAG [r5_5_JUSTAS]”, less than -1 kcal/mol; in that of “SAGSVTATITLPSGETVTVDVAPDEERILTTPEGRLLRLTDVRPGAVAFTEGENFVPDEDGNLVPLSLLSAG [r5_417_JUSTAS]”, less than -1 kcal/mol. Turning to “SAGVPVDLHHDPKGVELATSTSYTPSGEPVGSSSSTHTVPGTGTPVSVYSPVYDDGAGLITRTYLAKLSAGG [r19_185_JUSTAS]”, the “folding stability dG unfold” value is less than -1 kcal/mol. To “SAGWKIKIYPPNGQPQEIPIEDAKEIAEELAEQGNVQITPDGDIYIPFPMKDPEDGKPHQMYIQIERDKSAG [r5_243_TrROS]” belongs less than -1 kcal/mol; to “SAKITITLPNGKKIEIELPEGYEIVEVTFDKETGVITIKVKNKETGKEYKITLTFNEDGSLTISIEEVDSAG [r14_311_TrROS_Hall]”, more than 6 kcal/mol; to “SAMDAKELAEEIADEFAPKFPNIKPKKVTVEPTGDHYEGNIEWEMPNGRPMRVEVTVEKDGNIEDIEFHSAG [r14_719_TrROS]”, less than -1 kcal/mol. To “SAMPLSELEFVEERVFPDPPVRISVYRLPSPGVWVVPVLEPGTGRPRLVELEAADGVLDEEEVRAAVLESAG [r14_948_JUSTAS]” belongs less than -1 kcal/mol; to “SAMSPELEELLAQLKAAAEATTDVSVFATDAAGNLRSIGPVTVTGPATSLAELRPELAARPVARVELVGSAG [r14_318_JUSTAS]”, less than -1 kcal/mol; to “SAPEVSVEEEEEEITDPVTGEKTTVYKITTKITLPDPNSSKKVTLTKPVIVEKTKSGTKVTEKPVFLLLSAG [r14_339_JUSTAS]”, less than -1 kcal/mol. With “SASSTLTFTLPRYTVNKVYDKEGKPVPVEITPVPTLEVTATTLPDGTVVVTIGDETRTYPPGVSPEELLSAG [r14_909_JUSTAS]”, the “folding stability dG unfold” value was less than -1 kcal/mol.

Regarding “SASVVDLETDGSMSVEEVVERFKKENPNVKEVKVTTEALPDEPKYRITLTITEDKGKTEENLKKTKELKSAG [r14_645_JUSTAS]”, the “folding stability dG unfold” value was less than -1 kcal/mol.

These data come from the supplement of paper PMC12764529.
